{"source": "patent US5827710", "about": "“DNA encoding the subunit of avian lactate dehydrogenase” (Oriental Yeast Co., Ltd., dated 1998)", "proteins": {"B1": {"name": "type B subunit of chicken lactate dehydrogenase (recombinant, expressed in Saccharomyces cerevisiae from YRp1G-cLD-B) (enzyme)", "chain": "not shown"}}, "target": "the molecule itself", "test": "gel filtration column chromatography (SMART system) of the purified recombinant protein: about 147,000 found, against about 36,000 calculated for each subunit", "text": "3) Determination of the molecular weight of the recombinant chicken LDH-B₄ protein As a result of gel filtration column chromatography analysis of the purified sample by a SMART system (made by Pharmacia), the molecular weight of the purified recombinant chicken LDH-B₄ protein was about 147,000 (FIG. 10). It is presumed that the subunits B of chicken LDH are combined to form a tetramer (theoretical molecular weight of about 140,000) because the molecular weight of each subunit B of chicken LDH is calculated at about 36,000 from its amino acid sequence.", "data": [{"protein": "B1", "values": [{"measurement": "binding result", "result": "binds"}]}]}
